According to PMC12649849:

Target: Protein A on the ProA BLI sensor (Staphylococcus aureus) (UniProt P38507)
Test: BLI

ChromPure mouse IgG (whole molecule) (antibody)
koff: 0.00121 s⁻¹ | kon: 92500 M⁻¹ s⁻¹
